Source: patent US20190112367A1 (IMMUNOQURE, published 2019)

How the values were obtained:
[1] = target: T1, IL-32alpha (ImmunoTools) (human, UniProt P24001-4 1-131, limits assumed); assay: ELISA, antigen coated at 1 µg/ml, serial dilutions of MAB
T1 construct: Bought from ImmunoTools; also called IL-32α
T1 sequence (looked up): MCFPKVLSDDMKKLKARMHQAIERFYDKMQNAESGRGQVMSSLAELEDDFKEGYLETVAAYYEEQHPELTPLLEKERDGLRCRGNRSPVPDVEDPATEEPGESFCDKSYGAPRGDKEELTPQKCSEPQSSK
Experimental: (§1) EC50 binding of exemplary anti-IL-32 antibodies of the present invention to IL-32γ (R&D) or IL-32α (ImmunoTools), was determined by ELISA. Serial dilutions of MABs (from 100,000 ng/ml down to 1.69 ng/ml) were incubated for 2 hours with antigen-coated plates (coating overnight at 1 μg/ml in PBS, followed by wash out and blocking with 2% BSA in PBS). The plates were subsequently washed and binding of MABs was detected with anti-human HRP-conjugated Fc-gamma-specific secondary antibody (Jackson ImmunoResearch, Europe Ltd., Cambridgeshire, UK). Concentrations of MAB resulting in half of maximal binding to respective antigens (EC50, ng/ml) were calculated using Prism 4 GraphPad software on sigmoidal dose-response curves (variable slope, 4 parameters) obtained by plotting the log of the concentration versus OD 450 nm measurements; for the results see FIG. 3 and Table 4 below.

[2] = target: T1, IL-32alpha (ImmunoTools); assay: ELISA, antigen coated on plate
Experimental: as §1

B1: anti-IL-32 antibody 2C2 (IgG3, lambda) (antibody, V domains shown)
VH: QLRVQESGPGLLKPAETLSLTCSVSSGSVSNSRYYWAWIRQSPGKGLEWIGSMYYRGRSYYNPSLKSRLTISIDTSKNQFSLKLTSLTAADTAVYYCAAAVYHDLDYWGQGTLVTVSS
VL: QSVLTQPPSVSAAPGQKVTISCSGSGSSIGNNYVSWYQQLPGAAPKLLIYDNTKRPSGIPDRFSGSKSGTSATLAITGLQPGDAADYYCGTWDSSFSVFWVFGGGTKLTVLS
notes: Human patient-derived antibody, recombinantly expressed; the chains are put together from these; also called MAB 2C2; exemplary anti-IL-32 2C2 antibody
[1]
  EC50: > 30 µg/mL

B2: anti-IL-32 antibody 14B3 (IgG1, lambda) (antibody)
heavy: not shown
light: SYELTQPPSVSVSPGQTARITCSGDALPETYVYWYQQKSGQAPVKLIYEDSERPSGIPERFSGSSSGTLATLTISGAHVEDEADYYCYSTDSSGIGVFGGGTKLTVLSQPKAAPSVTLFPPSSEELQANKATLVCLISDFYPGAVTVAWKADSSPVKAGVETTTPSKQSNNKYAASSYLSLTPEQWKSHKSYSCQVTHEGSTVEKTVAPTECS
notes: also called MAB 14B3
[2]
  binding result: no binding (tested: 100 ug/ml (highest concentration tested))

B3: anti-IL-32 antibody 19A1 (IgG1, lambda) (antibody)
heavy: not shown
light: B2 light
notes: also called MAB 19A1
[2]
  binding result: no binding (tested: 100 ug/ml (highest concentration tested))

B4: anti-IL-32 antibody 26A6 (IgG1, lambda) (antibody, V domains shown)
VH: QVQLVESGGGVVQPGRSLRLSCVASGLTFRTYGMHWVRQAPGNGLEWVAIIWHDGNKKYFADSVKGRFTISRDNSKNSLYLQMNSLRVEDTAVYYCAREMNGIDVWGQGTTVTVSS
VL: SYELTQPPSVSVSPGQTARITCSGDALPETYVYWYQQKSGQAPVKLIYEDSERPSGIPERFSGSSSGTLATLTISGAHVEDEADYYCYSTDSSGIGVFGGGTKVTVLS
notes: IgG1, lambda; also called MAB 26A6
[2]
  binding result: no binding (tested: 100 ug/ml (highest concentration tested))
